These results are taken from the RNAGym collection of RNA variant scans (doi:10.1073/pnas.2313332121).

B1: TPR t1 (parent)
chain: GACCAAUCUGCCCUCAGAGCUCGAGAACAUCUUCGGAUGCAGAGGAGGCAGGCUUCGGUGGCGCGAUAGCGCCAACGUCCUCAACCUCCAAUGCAUCCCACCACAUGAUGAUGCCUGAAGAGCCUUGGUUUUUUG

In the series the parent is B1. The experiment in a line: polymerase ribozyme fitness, log enrichment relative to wild type (log ratio); higher = more active; in vitro selection for triplet polymerase activity. An outline of the steps: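 Libraries of mutants in each subunit of a heterodimeric triplet polymerase ribozyme were generated by PCR and transcribed. In triplicate, each went through one in vitro selection round: annealing with biotinylated primer, partner subunit and triplets; frozen incubation at −7 °C; gel excision of extended constructs; streptavidin-bead capture; RT-PCR. Fitness, taken from Illumina sequencing of input and output libraries, is the logarithm of a genotype's enrichment over wild-type enrichment, averaged across replicates with inverse-variance weights. The logarithm is base 2, and genotypes needed ≥10 input reads and ≥1 read per output to be kept.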
As to C13G A24G G48A G63C C86G U109A, the “polymerase ribozyme fitness (log ratio)” value was -6.58. As for C12U G19A G71A C73U C123A, the “polymerase ribozyme fitness (log ratio)” value was -1.42.

In the case of C12U G45U C70G U132C, the “polymerase ribozyme fitness (log ratio)” value is -6.34. For C13A A91C U96C, the “polymerase ribozyme fitness (log ratio)” value was -2.79. Next, C13A U14A G44A C56U: -2.36.

In the case of C12U G19C A46U U112A, the “polymerase ribozyme fitness (log ratio)” value is -0.273. Next, C12U G93A: -0.0469; C12U G93U: -0.871. C13A A103U U109A U125A U131G: the “polymerase ribozyme fitness (log ratio)” value was -6.73. The same measure for C12U C79A U106C: -1.41; for C13A U21A A29U: -4.11. The same measure for C12U G39C U78A: 0.181; for C12U C102U: -1.83. Next, C13G A26G C70U C99U A119U: -4.5; C13A G48U A111C: -2.2; C13A C123A: -0.742. Turning to C13A U21C C62G, the “polymerase ribozyme fitness (log ratio)” value was -2.82. On to C13A C40U C72U, for which the “polymerase ribozyme fitness (log ratio)” value is -2.43.

For C13A C82G, the “polymerase ribozyme fitness (log ratio)” value was -1.93. The same measure for C13A C82U: -1.59; for C12U G42A G128C U131G: -4.81; for C13A C79G C123A U129G: -3.45. Next, C12U C115A: 0.202; C12U U21G U38A G61C A103U U112C C115A A118G G127U: -6.24. As to C12U G42U C49G C73U U96C, the “polymerase ribozyme fitness (log ratio)” value is -2.57. The same measure for C13A G120C: -0.417; for C12U C64U C72A U87C: -0.223; for C12U G61A C73A C88A: -1.6.

For C13A G36A G63A C80U, the “polymerase ribozyme fitness (log ratio)” value is -3.86.

In the case of C13A A18U G42U C123G, the “polymerase ribozyme fitness (log ratio)” value was -0.827. On to C13A A26C C56A G60U C88U G113U C115U, for which the “polymerase ribozyme fitness (log ratio)” value is -6.95.

For the variant C13A A50C G52U G93C, the “polymerase ribozyme fitness (log ratio)” value is -4.43. Next, C12U G60C C123G: 1.46.

In the case of C13G A18C U38G C88A A121U, the “polymerase ribozyme fitness (log ratio)” value is -3.5. The same measure for C13A G57C C85A: -1.99. Consider C12U G39A C85U, for which the “polymerase ribozyme fitness (log ratio)” value was -1.02.

As for C12U G51A C79U C101A, the “polymerase ribozyme fitness (log ratio)” value is -3.78.

With C13A C70U, the “polymerase ribozyme fitness (log ratio)” value was -2.36. In the case of C13A C70G, the “polymerase ribozyme fitness (log ratio)” value was -3.31. Regarding C12U U21G C53U A68C C124A, the “polymerase ribozyme fitness (log ratio)” value was -6.61. Next, C12U G48U C94U: -1.04; C12U G52U A68G A74G: -3.85. With C12U G42A G61A G110A, the “polymerase ribozyme fitness (log ratio)” value is -4.38. The same measure for C13A C73U C79U U132A: -1.98; for C12U U78C: -0.312.

In the case of C13A A16U C72U G93A, the “polymerase ribozyme fitness (log ratio)” value is -3.35. As to C12U G60U A90G C99U, the “polymerase ribozyme fitness (log ratio)” value was -2.17. The same measure for C13A C102A: -3.7. Next, C12U U21A G35A A74G: -4.28; C12U U78G U96A G120U U131A: -0.178. Next, C13A G52U U54C C70U C124U: -1.03. Regarding C13A C85U C102U, the “polymerase ribozyme fitness (log ratio)” value was -4.16. In the case of C13A C56G C73U G77U, the “polymerase ribozyme fitness (log ratio)” value is -1.96.

In the case of C13A A37C C73U A118U, the “polymerase ribozyme fitness (log ratio)” value was -1.72.

As for C13A A27U G47U, the “polymerase ribozyme fitness (log ratio)” value was -3.3. The same measure for C12U C104G: -4.58; for C12U C70U: 0.3; for C12U C70G: -2.05. Regarding C12U C70A, the “polymerase ribozyme fitness (log ratio)” value is -0.649. For C12U C97G C104U, the “polymerase ribozyme fitness (log ratio)” value is -2.92.

For the variant C12U G69U, the “polymerase ribozyme fitness (log ratio)” value was 1.01. C12U G36U C104U C123G: the “polymerase ribozyme fitness (log ratio)” value came out at 0.937. Consider C12U G57A G113C, for which the “polymerase ribozyme fitness (log ratio)” value is -2.33. As to C13A C86U C124G, the “polymerase ribozyme fitness (log ratio)” value was determined as 1.07.

Consider C12U G63U A68C C123U, for which the “polymerase ribozyme fitness (log ratio)” value is -4.7. For the variant C12U G45U C82G C97G, the “polymerase ribozyme fitness (log ratio)” value is -5.36. C12U C72U A83U C99U: the “polymerase ribozyme fitness (log ratio)” value was -3.62. The same measure for C13A A43G G110A C124G G128A: -6.67; for C13A A46U U106C: -2.81. The same measure for C12U G17U A50G U112A: 0.845. In the case of C13A G36C C64U C80U U112G G117A, the “polymerase ribozyme fitness (log ratio)” value was -6.43. Take C13A G44C U116G C124G: the “polymerase ribozyme fitness (log ratio)” value was -2.72. Consider C13A C101A, for which the “polymerase ribozyme fitness (log ratio)” value is -2.54. Regarding C13A C49G G122U C124G, the “polymerase ribozyme fitness (log ratio)” value was -0.569. The same measure for C13A U55C G58A G63A: -3.2. The same measure for C13A A105U: -3.91; for C12U G23A: -3.55; for C13A C53G C70U: -2.31. As for C12U G36U C94U A111G U116A, the “polymerase ribozyme fitness (log ratio)” value is -2.07.

For C13A G39C, the “polymerase ribozyme fitness (log ratio)” value was -2. Next, C12U G17U C73U C88U C104A U109A: -5.21; C12U G71A U92G U96A: -5.06.

Take C12U G42U C49G U96C: the “polymerase ribozyme fitness (log ratio)” value was -2.37. Next, C13A G60U C72U A91U G120A: -2.35.
